# Measured values taken from article PMC9181795, “Ibuprofen Favors Binding of Amyloid-β Peptide to Its Depot, Serum Albumin” (International Journal of Molecular Sciences, 2022).
# Entries after “also recorded” stand apart in the source; their conditions may differ.
# Experiments:
# HSA–Aβ interaction = tested on: HSA–Aβ interaction; design: method as in 5 sources, ref [12] = [12]; PMID 30685090; doi:10.1016/j.bbrc.2019.01.081; 12. Litus E.A. Kazakov A.S. Sokolov A.S. Nemashkalova E.L. Galushko E.I. Dzhus U.F. Marchenkov V.V. Galzitskaya O.V. Permyakov E.A. Permyakov S.E. The binding of monomeric amyloid beta peptide to seru ||| ref [12],[13] = [12]; PMID 30685090; doi:10.1016/j.bbrc.2019.01.081; 12. Litus E.A. Kazakov A.S. Sokolov A.S. Nemashkalova E.L. Galushko E.I. Dzhus U.F. Marchenkov V.V. Galzitskaya O.V. Permyakov E.A. Permyakov S.E. The binding of monomeric amyloid beta peptide to seru || [13]; PMID 34072751; doi:10.3390/ijms22115896; 13. Litus E.A. Kazakov A.S. Deryusheva E.I. Nemashkalova E.L. Shevelyova M.P. Nazipova A.A. Permyakova M.E. Raznikova E.V. Uversky V.N. Permyakov S.E. Serotonin promotes serum albumin interaction with ||| ref [7] = [7]; PMID 10347147; doi:10.1074/jbc.274.23.15990; 7. Bohrmann B. Tjernberg L. Kuner P. Poli S. Levet-Trafit B. Naslund J. Richards G. Huber W. Dobeli H. Nordstedt C. Endogenous proteins controlling amyloid beta-peptide polymerization. Possible implic ||| ref [14] = [14]; PMID 29409811; doi:10.1016/j.jmb.2018.01.008; 14. Bode D.C. Stanyon H.F. Hirani T. Baker M.D. Nield J. Viles J.H. Serum albumin’s protective inhibition of amyloid-β fiber formation is suppressed by cholesterol, fatty acids and warfarin J. Mol. Bi ||| ref [13] = [13]; PMID 34072751; doi:10.3390/ijms22115896; 13. Litus E.A. Kazakov A.S. Deryusheva E.I. Nemashkalova E.L. Shevelyova M.P. Nazipova A.A. Permyakova M.E. Raznikova E.V. Uversky V.N. Permyakov S.E. Serotonin promotes serum albumin interaction with; conditions: cited from earlier work; for effect of HSA ligand on HSA–Aβ interaction: ref [14]; for effect on HSA affinity toward monomeric Aβ: ref [12],[13]
# [1] = biological target: A21G mutant of amyloid-β peptide 1-40, Flemish variant of Aβ40 (human); test: SPR; Aβ immobilised by amine coupling on a ProteOn GLH chip (6000-9000 RU), non-covalently bound Aβ washed off (2% SDS, 100 mM HCl, 20 mM EDTA pH 8.0 with 1% SDS) to leave monomeric Aβ; analyte 0.5-8 uM HSA; no IBU; 25 °C; 20 mM Tris-HCl, 140 mM NaCl, […] KCl, 1 mM MgCl2, […] CaCl2, pH 7.4; heterogeneous ligand model (two ligand populations L1 and L2)
# [2] = biological target: A21G mutant of amyloid-β peptide 1-40, Flemish variant of Aβ40 (human); test: SPR; as a1, but with 100 uM ibuprofen (IBU) in the running buffer: Aβ immobilised by amine coupling and washed to monomer; analyte 0.5-8 uM HSA; 25 °C; 20 mM Tris-HCl, 140 mM NaCl, […] KCl, 1 mM MgCl2, […] CaCl2, pH 7.4; heterogeneous ligand model (two ligand populations L1 and L2)
molecule,measurement,setting,value
CC(=O)CC(c1ccccc1)c1c(O)c2ccccc2oc1=O (stereo not shown) [warfarin],effect of HSA ligand on HSA–Aβ interaction,HSA–Aβ interaction,exert the opposite effect; also recorded: act in the opposite direction
NCCc1c[nH]c2ccc(O)cc12 [serotonin],effect on HSA affinity toward monomeric Aβ,HSA–Aβ interaction,enhance HSA affinity toward monomeric Aβ
CCCCC/C=C\C/C=C\CCCCCCCC(=O)O [linoleic acid],effect on HSA affinity toward monomeric Aβ,HSA–Aβ interaction,enhance HSA affinity toward monomeric Aβ
"CCCCC/C=C\C/C=C\C/C=C\C/C=C\CCCC(=O)O [arachidonic acid, arachidonic]",effect on HSA affinity toward monomeric Aβ,HSA–Aβ interaction,enhance HSA affinity toward monomeric Aβ
human serum albumin (from UniProt P02768 25-609) (natural protein),Kd2 (ligand population L2),[1],670 pM
same,ka1 (ligand population L1),[1],30000 M⁻¹ s⁻¹
same,kd2 (ligand population L2),[1],1.8e-06 s⁻¹
same,Kd1 (ligand population L1),[2],8.2 pM
same,ka1 (ligand population L1),[2],25000 M⁻¹ s⁻¹
same,kd1 (ligand population L1),[2],2e-07 s⁻¹
same,kd2 (ligand population L2),[2],1.03e-06 s⁻¹
N[C@@H](Cc1c[nH]c2ccccc12)C(=O)O [tryptophan],effect on the HSA–Aβ40/Aβ42 equilibrium,HSA–Aβ interaction; ref [13],does not affect the HSA–Aβ40/Aβ42 equilibrium
CC(C)CCC[C@@H](C)[C@H]1CC[C@H]2[C@@H]3CC=C4C[C@@H](O)CC[C@]4(C)[C@H]3CC[C@]12C [cholesterol],effect of HSA ligand on HSA–Aβ interaction,HSA–Aβ interaction,exert the opposite effect; also recorded: act in the opposite direction
